Results reported in patent US20080015137A1.

These substances were tested against Karyopherin beta2 (Kapβ2), full length, wild type (human) (UniProt Q92973) (assay: ITC; MBP-M9NLS(257-305) mutant titrated into full length Kapβ2).
Sequence of Karyopherin beta2 (Kapβ2), full length, wild type (human) (Q92973 9-898 limits assumed): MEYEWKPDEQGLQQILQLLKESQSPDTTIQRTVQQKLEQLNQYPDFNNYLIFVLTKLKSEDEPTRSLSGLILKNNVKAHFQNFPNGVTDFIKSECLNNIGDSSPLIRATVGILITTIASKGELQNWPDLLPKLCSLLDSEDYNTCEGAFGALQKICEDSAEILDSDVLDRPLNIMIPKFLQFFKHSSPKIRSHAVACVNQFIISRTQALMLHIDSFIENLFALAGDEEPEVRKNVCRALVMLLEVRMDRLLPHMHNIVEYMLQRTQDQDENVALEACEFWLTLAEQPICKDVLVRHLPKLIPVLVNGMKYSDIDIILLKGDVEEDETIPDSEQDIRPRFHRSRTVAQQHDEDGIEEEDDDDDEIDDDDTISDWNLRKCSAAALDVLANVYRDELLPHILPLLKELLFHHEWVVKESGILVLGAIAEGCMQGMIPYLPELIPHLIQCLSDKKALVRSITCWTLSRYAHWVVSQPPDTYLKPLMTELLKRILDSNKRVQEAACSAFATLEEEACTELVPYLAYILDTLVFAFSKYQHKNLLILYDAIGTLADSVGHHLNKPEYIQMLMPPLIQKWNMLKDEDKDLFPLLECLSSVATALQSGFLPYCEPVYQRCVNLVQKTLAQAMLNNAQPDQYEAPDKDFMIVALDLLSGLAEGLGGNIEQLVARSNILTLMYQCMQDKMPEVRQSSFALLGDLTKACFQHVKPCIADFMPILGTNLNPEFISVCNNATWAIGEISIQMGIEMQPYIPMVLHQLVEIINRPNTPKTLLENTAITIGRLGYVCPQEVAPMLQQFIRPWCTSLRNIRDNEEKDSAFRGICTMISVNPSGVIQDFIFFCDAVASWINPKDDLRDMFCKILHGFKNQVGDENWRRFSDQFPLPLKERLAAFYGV
For “MBP-M9NLS(257-305) F273A (from UniProt P09651 257-305)”, the Kd was 61 nM. “MBP-M9NLS(257-305) F281A (from UniProt P09651 257-305)” was tested, and the Kd was 56 nM. In the case of “MBP-M9NLS(257-305) G274A (from UniProt P09651 257-305)”, the Kd is reported as 746 nM. “MBP-M9NLS(257-305) G274A/P288A/Y289A (from UniProt P09651 257-305)” showed a Kd of 5900 nM. For “MBP-M9NLS(257-305) M276A (from UniProt P09651 257-305)”, the Kd was 83 nM. “MBP-M9NLS(257-305) P275A (from UniProt P09651 257-305)” showed a Kd of 74 nM. Work on “MBP-M9NLS(257-305) P288A (from UniProt P09651 257-305)” yielded a Kd of 158 nM. “MBP-M9NLS(257-305) P288A/Y289A (from UniProt P09651 257-305)” gave a Kd of 136 nM. “MBP-M9NLS(257-305) R284A (from UniProt P09651 257-305)” was tested, and the Kd was 92 nM. In the case of “MBP-M9NLS(257-305) R284A/P288A/Y289A (from UniProt P09651 257-305)”, the Kd is reported as 461 nM. Work on “MBP-M9NLS(257-305) Y289A (from UniProt P09651 257-305)” yielded a Kd of 133 nM.
